Test results taken from US20210139548A1 (published 2021).
Values belong to the binder of their own block, whether it stands above or below them. *1 amine or outer side, *2 acyl side, *3 side chain or, on linkers, in order; H or OH if unused. Side-chain parts run from the residue outwards. The star is where a group is joined. C18 diacid = O=C(O)CCCCCCCCCCCCCCCCC(=O)*; γGlu = O=C(O)[C@H](CCC(=O)[*:2])N[*:1]; Isovaleryl = CC(C)CC(=O)*; AEEA = NCCOCCOCC(=O)O

Target: T1, human neuropeptide Y2 receptor (human, UniProt P49146 1-381)
T1 construct: whole, on cells; also called hNPY2 receptor; hNPY2-R
T1 sequence (looked up): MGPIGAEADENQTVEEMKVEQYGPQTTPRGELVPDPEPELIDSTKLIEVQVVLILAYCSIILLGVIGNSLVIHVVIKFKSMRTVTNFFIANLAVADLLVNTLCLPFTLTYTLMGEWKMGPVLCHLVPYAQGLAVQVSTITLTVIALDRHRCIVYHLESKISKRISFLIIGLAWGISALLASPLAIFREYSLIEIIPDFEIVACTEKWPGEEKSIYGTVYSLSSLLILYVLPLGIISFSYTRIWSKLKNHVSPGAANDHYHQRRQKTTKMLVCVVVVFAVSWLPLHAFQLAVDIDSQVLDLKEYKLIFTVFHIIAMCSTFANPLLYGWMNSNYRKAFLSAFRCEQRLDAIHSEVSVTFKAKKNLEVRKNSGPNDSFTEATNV
Test: radioligand competition (125I-PYY(1-36)), hNPY2R membranes
Procedure, shortened: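 Commercial human Y2 receptor membranes (0.5 μg protein/well) were incubated with peptide for 2 h at room temperature in 50 mM HEPES, 5 mM MgCl₂, 1 mM CaCl₂, pH 7.4, with 0.2% ovalbumin. Bound radioligand was separated on PEI-soaked GF/C filters and counted by scintillation, and IC₅₀ came from nonlinear sigmoidal regression.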

B2: Compound 177 (peptide)
peptide: Isovaleryl-APEK([AEEA-AEEA-γGlu-C18 diacid])PEEDSSPEELQRYYVELRHYYNWLTRQRY-NH2
SMILES: CC(C)CC(=O)N[C@@H](C)C(=O)N1CCC[C@H]1C(=O)N[C@@H](CCC(=O)O)C(=O)N[C@@H](CCCCNC(=O)COCCOCCNC(=O)COCCOCCNC(=O)CC[C@H](NC(=O)CCCCCCCCCCCCCCCCC(=O)O)C(=O)O)C(=O)N1CCC[C@H]1C(=O)N[C@@H](CCC(=O)O)C(=O)N[C@@H](CCC(=O)O)C(=O)N[C@@H](CC(=O)O)C(=O)N[C@@H](CO)C(=O)N[C@@H](CO)C(=O)N1CCC[C@H]1C(=O)N[C@@H](CCC(=O)O)C(=O)N[C@@H](CCC(=O)O)C(=O)N[C@@H](CC(C)C)C(=O)N[C@@H](CCC(N)=O)C(=O)N[C@@H](CCCNC(=N)N)C(=O)N[C@@H](Cc1ccc(O)cc1)C(=O)N[C@@H](Cc1ccc(O)cc1)C(=O)N[C@H](C(=O)N[C@@H](CCC(=O)O)C(=O)N[C@@H](CC(C)C)C(=O)N[C@@H](CCCNC(=N)N)C(=O)N[C@@H](Cc1c[nH]cn1)C(=O)N[C@@H](Cc1ccc(O)cc1)C(=O)N[C@@H](Cc1ccc(O)cc1)C(=O)N[C@@H](CC(N)=O)C(=O)N[C@@H](Cc1c[nH]c2ccccc12)C(=O)N[C@@H](CC(C)C)C(=O)N[C@H](C(=O)N[C@@H](CCCNC(=N)N)C(=O)N[C@@H](CCC(N)=O)C(=O)N[C@@H](CCCNC(=N)N)C(=O)N[C@@H](Cc1ccc(O)cc1)C(N)=O)[C@@H](C)O)C(C)C
Ki: 2.55 nM

B3: Compound 174 (peptide)
peptide: Isovaleryl-APAK([AEEA-AEEA-γGlu-C18 diacid])PEEDAEPEELQRYYVSLRHYYNWLTRQRY-NH2
SMILES: CC(C)CC(=O)N[C@@H](C)C(=O)N1CCC[C@H]1C(=O)N[C@@H](C)C(=O)N[C@@H](CCCCNC(=O)COCCOCCNC(=O)COCCOCCNC(=O)CC[C@H](NC(=O)CCCCCCCCCCCCCCCCC(=O)O)C(=O)O)C(=O)N1CCC[C@H]1C(=O)N[C@@H](CCC(=O)O)C(=O)N[C@@H](CCC(=O)O)C(=O)N[C@@H](CC(=O)O)C(=O)N[C@@H](C)C(=O)N[C@@H](CCC(=O)O)C(=O)N1CCC[C@H]1C(=O)N[C@@H](CCC(=O)O)C(=O)N[C@@H](CCC(=O)O)C(=O)N[C@@H](CC(C)C)C(=O)N[C@@H](CCC(N)=O)C(=O)N[C@@H](CCCNC(=N)N)C(=O)N[C@@H](Cc1ccc(O)cc1)C(=O)N[C@@H](Cc1ccc(O)cc1)C(=O)N[C@H](C(=O)N[C@@H](CO)C(=O)N[C@@H](CC(C)C)C(=O)N[C@@H](CCCNC(=N)N)C(=O)N[C@@H](Cc1c[nH]cn1)C(=O)N[C@@H](Cc1ccc(O)cc1)C(=O)N[C@@H](Cc1ccc(O)cc1)C(=O)N[C@@H](CC(N)=O)C(=O)N[C@@H](Cc1c[nH]c2ccccc12)C(=O)N[C@@H](CC(C)C)C(=O)N[C@H](C(=O)N[C@@H](CCCNC(=N)N)C(=O)N[C@@H](CCC(N)=O)C(=O)N[C@@H](CCCNC(=N)N)C(=O)N[C@@H](Cc1ccc(O)cc1)C(N)=O)[C@@H](C)O)C(C)C
Ki: 3.89 nM

B4: Compound 176 (peptide)
peptide: Isovaleryl-APEK([AEEA-AEEA-γGlu-C18 diacid])PEEDASEEELQRYYVSLRHYYNWLTRQRY-NH2
SMILES: CC(C)CC(=O)N[C@@H](C)C(=O)N1CCC[C@H]1C(=O)N[C@@H](CCC(=O)O)C(=O)N[C@@H](CCCCNC(=O)COCCOCCNC(=O)COCCOCCNC(=O)CC[C@H](NC(=O)CCCCCCCCCCCCCCCCC(=O)O)C(=O)O)C(=O)N1CCC[C@H]1C(=O)N[C@@H](CCC(=O)O)C(=O)N[C@@H](CCC(=O)O)C(=O)N[C@@H](CC(=O)O)C(=O)N[C@@H](C)C(=O)N[C@@H](CO)C(=O)N[C@@H](CCC(=O)O)C(=O)N[C@@H](CCC(=O)O)C(=O)N[C@@H](CCC(=O)O)C(=O)N[C@@H](CC(C)C)C(=O)N[C@@H](CCC(N)=O)C(=O)N[C@@H](CCCNC(=N)N)C(=O)N[C@@H](Cc1ccc(O)cc1)C(=O)N[C@@H](Cc1ccc(O)cc1)C(=O)N[C@H](C(=O)N[C@@H](CO)C(=O)N[C@@H](CC(C)C)C(=O)N[C@@H](CCCNC(=N)N)C(=O)N[C@@H](Cc1c[nH]cn1)C(=O)N[C@@H](Cc1ccc(O)cc1)C(=O)N[C@@H](Cc1ccc(O)cc1)C(=O)N[C@@H](CC(N)=O)C(=O)N[C@@H](Cc1c[nH]c2ccccc12)C(=O)N[C@@H](CC(C)C)C(=O)N[C@H](C(=O)N[C@@H](CCCNC(=N)N)C(=O)N[C@@H](CCC(N)=O)C(=O)N[C@@H](CCCNC(=N)N)C(=O)N[C@@H](Cc1ccc(O)cc1)C(N)=O)[C@@H](C)O)C(C)C
Ki: 3.05 nM

Stronger by Ki, values ahead:

Ki: 1.71 nM
B1: Compound 173 (peptide)
peptide: Isovaleryl-APAK([AEEA-AEEA-γGlu-C18 diacid])PEEDASPEELQRYYVELRHYYNWLTRQRY-NH2
SMILES: CC(C)CC(=O)N[C@@H](C)C(=O)N1CCC[C@H]1C(=O)N[C@@H](C)C(=O)N[C@@H](CCCCNC(=O)COCCOCCNC(=O)COCCOCCNC(=O)CC[C@H](NC(=O)CCCCCCCCCCCCCCCCC(=O)O)C(=O)O)C(=O)N1CCC[C@H]1C(=O)N[C@@H](CCC(=O)O)C(=O)N[C@@H](CCC(=O)O)C(=O)N[C@@H](CC(=O)O)C(=O)N[C@@H](C)C(=O)N[C@@H](CO)C(=O)N1CCC[C@H]1C(=O)N[C@@H](CCC(=O)O)C(=O)N[C@@H](CCC(=O)O)C(=O)N[C@@H](CC(C)C)C(=O)N[C@@H](CCC(N)=O)C(=O)N[C@@H](CCCNC(=N)N)C(=O)N[C@@H](Cc1ccc(O)cc1)C(=O)N[C@@H](Cc1ccc(O)cc1)C(=O)N[C@H](C(=O)N[C@@H](CCC(=O)O)C(=O)N[C@@H](CC(C)C)C(=O)N[C@@H](CCCNC(=N)N)C(=O)N[C@@H](Cc1c[nH]cn1)C(=O)N[C@@H](Cc1ccc(O)cc1)C(=O)N[C@@H](Cc1ccc(O)cc1)C(=O)N[C@@H](CC(N)=O)C(=O)N[C@@H](Cc1c[nH]c2ccccc12)C(=O)N[C@@H](CC(C)C)C(=O)N[C@H](C(=O)N[C@@H](CCCNC(=N)N)C(=O)N[C@@H](CCC(N)=O)C(=O)N[C@@H](CCCNC(=N)N)C(=O)N[C@@H](Cc1ccc(O)cc1)C(N)=O)[C@@H](C)O)C(C)C

Ki: 2.05 nM
B5: Compound 178 (peptide)
peptide: Isovaleryl-APEK([AEEA-AEEA-γGlu-C18 diacid])PEEDATPEETERYYVSLRHYYNWLTRQRY-NH2
SMILES: CC(C)CC(=O)N[C@@H](C)C(=O)N1CCC[C@H]1C(=O)N[C@@H](CCC(=O)O)C(=O)N[C@@H](CCCCNC(=O)COCCOCCNC(=O)COCCOCCNC(=O)CC[C@H](NC(=O)CCCCCCCCCCCCCCCCC(=O)O)C(=O)O)C(=O)N1CCC[C@H]1C(=O)N[C@@H](CCC(=O)O)C(=O)N[C@@H](CCC(=O)O)C(=O)N[C@@H](CC(=O)O)C(=O)N[C@@H](C)C(=O)N[C@H](C(=O)N1CCC[C@H]1C(=O)N[C@@H](CCC(=O)O)C(=O)N[C@@H](CCC(=O)O)C(=O)N[C@H](C(=O)N[C@@H](CCC(=O)O)C(=O)N[C@@H](CCCNC(=N)N)C(=O)N[C@@H](Cc1ccc(O)cc1)C(=O)N[C@@H](Cc1ccc(O)cc1)C(=O)N[C@H](C(=O)N[C@@H](CO)C(=O)N[C@@H](CC(C)C)C(=O)N[C@@H](CCCNC(=N)N)C(=O)N[C@@H](Cc1c[nH]cn1)C(=O)N[C@@H](Cc1ccc(O)cc1)C(=O)N[C@@H](Cc1ccc(O)cc1)C(=O)N[C@@H](CC(N)=O)C(=O)N[C@@H](Cc1c[nH]c2ccccc12)C(=O)N[C@@H](CC(C)C)C(=O)N[C@H](C(=O)N[C@@H](CCCNC(=N)N)C(=O)N[C@@H](CCC(N)=O)C(=O)N[C@@H](CCCNC(=N)N)C(=O)N[C@@H](Cc1ccc(O)cc1)C(N)=O)[C@@H](C)O)C(C)C)[C@@H](C)O)[C@@H](C)O
